# Values of other authors, collected in PMC2766628.
# pKd: −log10 of the molar value.
# Biological target: PEP 3BP1 element (UniProt Q9Y2R2)
# Chain of UniProt Q9Y2R2 (Q9Y2R2 605-629): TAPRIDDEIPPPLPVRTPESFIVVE
substance,measurement,value
Csk SH3 (from UniProt P41240),pKd,6.10
